T1: human ASGR-1 (human, UniProt P07306 1-291)
T1 construct: Stably expressed on CHO-S cells (CHO-S:huASGR-1); The method text says human or mouse ASGR-1 cells were used; also called huASGR-1; hASGR-1
T1 sequence: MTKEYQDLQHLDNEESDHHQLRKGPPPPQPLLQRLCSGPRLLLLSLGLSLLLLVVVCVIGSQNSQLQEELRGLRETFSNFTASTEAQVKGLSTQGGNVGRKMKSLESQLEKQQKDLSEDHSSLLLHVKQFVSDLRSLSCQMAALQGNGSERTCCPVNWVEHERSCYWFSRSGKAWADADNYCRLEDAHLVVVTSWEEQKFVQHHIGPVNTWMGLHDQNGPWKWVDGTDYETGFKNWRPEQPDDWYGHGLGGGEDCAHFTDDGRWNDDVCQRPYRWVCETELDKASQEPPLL

B1: 176H4 (antibody, V domains shown)
VH: QVQLVESGGGVVQPGRSLRLSCAASGFTFSSYGMHWVRQAPGKGLEWVAIIWYDGSYKYYADSVKGRFTISRDNSKNTLYLQMSSLRAEDTAVYYCARDAHDFWSGYFAYWGQGALVTVSS
VL: DIVMTQTPLSLSVTPGQPASISCKSSQSLLHGDGKTYLYWYLQKPGQPPQLLIYEVSNRFSGVPDRFSGSGSGTDFTLKISRVEAEDVGIYYCMQSIQIPWTFGQGTRVEIK
B2: 7E11 (antibody, V domains shown)
VH: QVQLVESGGGVVQPGRSLRLSCAASGFTFSSFGMHWVRQAPGKGLEWVAIIWHDGSNKYYADSVKGRFTISRDNSNNTLYLQMSSLRAEDTAVYYCARDLSMGGMDVWGQGTTVTVSS
VL: DIQMTQSPSSLSASVGDRVTIACRASQNIISYLNWYQQKPGKAPKFLIYTASSLQSGVPSRFSGSGSGTDFTLTISSLQPEDFAIYYCQQTYSTPLTFGGGTKVEIK
B3: 75G3 (antibody, V domains shown)
VH: QVQLQQWGAGLLKPSETLSLTCAVYGGSLSGSYWSWIRQPPGKGLEWIGEINLSGSTNYNPSLKSRVTISVDTSKSQFSLTLRSVTAADTAVYYCARDYGGLDYWGQGTLVTVSS
VL: EIVLTQSPGTLSLSPGERATLSCRARQNVDSSYLAWYQQKPGQAPRLLIYGASSRATGIPDRFSGSGSGTDFTLTISRLEPEDFAVFYCQQYERSPWTFGQGTKVEIK
B4: 54E9 (antibody, V domains shown)
VH: QVQLVQSGAEVKKPGASVKVSCKASGYTFNSYGISWVRLAPGQGLEWMGWISAYNGNTKNAQKLQGRVTMTTDTSTSTAYMELRSLRSDDTAVYYCARHDFWSGYYKGMDVWGQGTTVTVSS
VL: not shown
B5: 12D2 (antibody, V domains shown)
VH: EVQLVESGGGLVKPGGSLRLSCAASGFTFSSYSMNWVRQAPGKGLEWVSSISSSSSYIYYADSVKGRFTISRDNAKNSLYLQMNSLRAEDTAVYYCARLGDYWGQGTLVAVSS
VL: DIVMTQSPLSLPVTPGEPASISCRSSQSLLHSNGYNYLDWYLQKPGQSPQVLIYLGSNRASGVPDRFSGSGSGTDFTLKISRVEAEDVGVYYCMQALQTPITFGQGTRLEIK
B6: 48B12 (antibody, V domains shown)
VH: EVQLLESGGGLVQPGGSLRLSCAASGFTFSSYAMNWVRQAPGKGLEWVSAISGRGGNTFYADSVKGRFTISRDNSKNTLYLQMNSLRAEDTAVYYCAKRETYNWNYEGFDYWGQGTLVTVSS
VL: SYELTQPPSVSVSPGQTARITCSGDALPKKYAYWYQQKSGQAPVLVIYEDSKRPSGIPERFSGSSSGTMATLTISGAQVEDEADYYCNSTDSSGNHVVFGGGTKLTVL
B7: 22G5 (antibody, V domains shown)
VH: EVQLLESGGGLVQPGGSLRLSCAASGFTFSSYAMNWVRQAPGMGLEWVSVISRSGGYTYYADSVKGRFTISRDNSKNTLYLQMNSLRAEDTAVYYCASRLAVAGSEAFDIWGQGTLVTVSS
VL: DIQMTQSPSSLSASVGDRVTITCRASQNISSYLNWYQQKQGKAPKLLIYAASSLQNGVPSRFSGRGSGTDFTLTISSLQPEDFATYYCQQSYRTPLFTFGPGTKVDFK
B8: 56E5 (antibody, V domains shown)
VH: QVQLVQSGAEVKKPGASVKVSCQASGYTFTGYHMHWVRQAPGQGLEWMGWINPNNNATNYAQKFQGRVTMTRDTSISTAYMELRRLRSDDTAVYHCARDGTSSFDYWGQGTLVTVSS
VL: DIQMTQSPSSVSASVGDRVTITCRASQGIRKWLAWYQQKPGKAPKLLIYAASSLQSGVPSRFSGSGSGTDFTLTISSLQPEDFATYYCQQANSFPFTFGPGTKVDIK
B9: 72G9 (antibody, V domains shown)
VH: EVQLVESGGGLVKPGGSLRLSCAASGFTFSSYSMNWVRQAPGKGLEWVSSISGSSSYIYYADSVKGRFTISRDNAKNSLYLQMNSLRAEDTAVYFCARGGSRGFDPWGQGTLVTVSS
VL: B8 VL with V11L, G28S, R30T, K31S, W32Y, A34N, A50T, A91S, N92H
B10: 7F4 (antibody, V domains shown)
VH: QLQLQESGPGLVKPSETLSLTCTVSGGSISRSSYYWGWIRQPPGKGLEWIGNIYYSGATYYNPSLKSRVTISVDTSTNQFSLKLSSVTAADTAVYYCARHSGSWSLDYWGQGTLVTVSS
VL: DIQMTQSPSSLSASVGDRVTITCRTSQGIRNDLGWYQQKPGKAPKRLIYAASNLQSGVPSRFSGSGSGTEFTLTISSLQPEDFATYYCLQHSAYPLTFGGGTKVEIK
B11: 25A4 (antibody, V domains shown)
VH: QVLLVQSGAEVKRPGASVKVSCKASGYTFTNYDINWVRQATGQGLEWMGWMYPNSGNTGYAQKFQGRVTMTRNTSISTAYMELSSLRSEDTAVYYCASSSGWYYFDYWGQGTLVTVSS
VL: DIVMTQFPDSLAVSLGERATIKCKSSQSVLYSSHNNNYLAWYQQKPGQPPKLLLYWASTRESGVPDRFSGSGSGTEFTLTISSLEAEDVAVYYCQQYYSTPPTFGQGTKVEIK
B12: 26C4 (antibody, V domains shown)
VH: B11 VH with L3Q, R13K, T41S, Y52N, K63R, S77N
VL: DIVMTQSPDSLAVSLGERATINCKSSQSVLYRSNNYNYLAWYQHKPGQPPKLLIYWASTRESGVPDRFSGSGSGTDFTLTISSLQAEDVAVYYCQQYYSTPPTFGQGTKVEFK
B13: 29H8 (antibody, V domains shown)
VH: B11 VH with L3Q, K12Q, R13K, Y52N, K63R, T78A
VL: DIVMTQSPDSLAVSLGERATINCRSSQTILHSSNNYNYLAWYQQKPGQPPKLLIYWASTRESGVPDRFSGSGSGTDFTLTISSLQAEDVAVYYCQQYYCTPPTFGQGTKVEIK
B14: 184E7 (antibody, V domains shown)
VH: QVQLVQSGAEVKTPGASVKVSCRASGYTFTSYNMHWVRQVPGQGLEWMGWINPNNGGSNYTQKFQGRVTMTRDTSISTAYMELSRLRSDDTAVYYCARKFGDWGQGTLVTVSS
VL: DIQMTQSPSSRSASIGERVTITCRASQGISNYLAWIQQKPGTAPKSLIYAASSLQSGVSSRFSGSGFGTDFTITISSVQREDFATYYCQQYNGYPFTFGHGTKVDIK

Where a chain is given by its changes, count along the chain named.

One test addresses T1, human ASGR-1. Briefly: FACS ligand blocking on CHO-S ASGR-1 cells; competitor biotinylated asialofetuin. As to the method:
(§1) All ASGR-1 antibodies that bound either human or mouse ASGR-1 stable CHO—S cells were then tested for ligand blocking using both a protein ligand and a synthetic sugar ligand. The method in brief is as follows: first, 20 ul of either CHO-Shuman or mouse ASGR-1 cells were added to wells of a 384 well plate (30 k cells/well) followed by spin and discarding the supernatant. Second, 10 ul of the antibodies (either purified from hybridoma supernatants or made recombinantly) were added in duplicate to the cells in a dilution series (200 nM top concentration, 1:2 serial dilution, 11 point curve) and were incubated for 30 min at 4 C. […] After 30 min incubation at 4C, the plate was spun and washed twice with FACS buffer+1 mM CaCl2 followed by the detection streptavidin-AF647 at 1:1000 dilution. After 30 min at 4C, the cells were spun and washed once and then 60 ul PI added at 1:1000 dilution and the plates delivered to a core flow cytometry facility. The plates were read and processed similarly to the cell binding method except the signal now represents an inhibition curve and typically decreases a function of increasing antibody concentration. IC50 nM potency and % Inhibition were reported. […] Differences in the ability of antibodies to block these two ligands could occur as a result of differences in, for example, avidity stemming from differences in the number and/or orientation of the ASGR binding terminal sugar residues of each ligand, steric hindrance between antibody and each ligand, and/or changes in the conformation of ASGR induced by antibody binding that selectively alters the binding of each ligand.
Broadly, the % Inhibition is how much of the control response was suppressed. A low value points to a response near the control. Regarding B1, the “% Inhibition” value was 99%.
The term IC50 denotes the midpoint of a concentration-inhibition curve. Low readings indicate greater potency in that assay, high ones weaker potency in that assay. On to B2, for which the “% Inhibition” value amounted to 99% and the half-maximal inhibitory concentration (IC50) is 13 nM.
Consider B3, for which the “% Inhibition” value was 99% and the IC50 amounted to 29 nM.
The corresponding values for B4 are 75% and 50 nM.
The corresponding values for B5 are 20% and 10 nM.
As to B6, the “% Inhibition” value amounted to 99% and the IC50 is 19 nM.
Consider B7, for which the “% Inhibition” value came out at 99%.
For B8, the “% Inhibition” value was determined as 99% and the IC50 was found to be 23 nM.
The corresponding values for B9 are 20% and 53 nM.
The corresponding values for B10 are 99% and 2.6 nM.
Turning to B11, the “% Inhibition” value is 99% and the IC50 was determined as 11 nM.
Turning to B12, the “% Inhibition” value turned out to be 99% and the IC50 was found to be 6.6 nM.
Regarding B13, the “% Inhibition” value came to 99% and the 50% inhibitory concentration (IC50) stood at 7 nM.
Regarding B14, the “% Inhibition” value was determined as 99% and the IC50 came out at 23 nM.

The next test has as its target T1, human ASGR-1. Briefly: FACS ligand blocking on CHO-S ASGR-1 cells; labelled ligand biotin-GalNAc-PAA (synthetic sugar). As to the method: as §1
For B1, the “% Inhibition” value was 79%.
For B2, the “% Inhibition” value was 37% and 40 nM corresponded to half-maximal inhibition (IC50).
The corresponding values for B3 are 99% and 115 nM.
Turning to B4, the “% Inhibition” value was determined as 19% and the IC50 was determined as 100 nM.
The corresponding values for B5 are 10% and 2.1 nM.
B6: the “% Inhibition” value stood at 94% and it took 86 nM to reach half-maximal inhibition (IC50).
Take B7: the “% Inhibition” value is 93%.
Consider B8, for which the “% Inhibition” value stood at 99% and half-maximal inhibition (IC50) was put at 45 nM.
The corresponding values for B9 are 20% and 24 nM.
The corresponding values for B10 are 30% and 0.24 nM.
The corresponding values for B11 are 77% and 40 nM.
Consider B12, for which the “% Inhibition” value was 83% and the IC50 is 36 nM.
The corresponding values for B13 are 99% and 17 nM.
On to B14, for which the “% Inhibition” value stood at 99% and the IC50 was 10 nM.

The values above are taken from US20190248902A1 (published 2019).
